Assay results as given in patent US6410317, “Recombinase-based methods for producing expression vectors and compositions for use in practicing the same” (Clontech Laboratories, Inc.).

How the values were obtained:
Cre recombinase [1] = target: T1, Cre recombinase (UniProt P06956 P06956:1-343); assay: acceptor loxP site; same buffer, 37 C 15 min; loxP of this acceptor PCR-transferred to 10 acceptors, 27 of 30 clones correct with pDNR-luc; settings: chain copies: 4 per synapse (inferred); SfiI and BglII overhangs before cloning; assayed within plasmid
T1 sequence (P06956 whole entry, one chain of several): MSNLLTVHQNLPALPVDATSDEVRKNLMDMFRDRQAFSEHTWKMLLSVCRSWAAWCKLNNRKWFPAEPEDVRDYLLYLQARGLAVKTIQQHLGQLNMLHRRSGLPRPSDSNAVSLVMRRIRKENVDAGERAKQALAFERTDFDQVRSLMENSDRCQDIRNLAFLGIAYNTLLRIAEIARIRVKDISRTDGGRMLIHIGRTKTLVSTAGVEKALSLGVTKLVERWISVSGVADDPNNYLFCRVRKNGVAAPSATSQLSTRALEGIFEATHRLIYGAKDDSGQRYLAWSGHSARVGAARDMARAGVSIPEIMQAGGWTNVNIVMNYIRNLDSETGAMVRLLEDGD

Cre recombinase [2] = target: T1, Cre recombinase; assay: same reaction, second donor loxP site; settings: chain copies: 4 per synapse (inferred); EcoRI and SapI overhangs before cloning; assayed within plasmid
Description: (§1) To achieve generation of the expression vector from the donor and acceptor, the following were mixed together on ice in a standard eppendorf microcentrifuge tube: 0.5 µg pCMVmycloxP (representing the Acceptor vector); 0.5 µg pD3 (representing the Donor vector); 2 µl 10×Cre reaction buffer (10×Cre reaction buffer contains: 500 mM Tris-HCl (pH 7.5) and 300 mM NaCl); 10 mM MgCl_2, 1 µl 20×BSA (20×BSA contains 2 mg/ml BSA (NEB)); 25 Units Cre recombinase (Novagen); H_2O to 20 µl total.
(§2) Once the reagents were mixed, the reaction was incubated for 15 mins at 37° C. Following the reaction, the mixture was heated to 65° C. for 10 mins to inactivate the Cre enzyme. Finally, an aliquot of the reaction mix was transformed to E. coli using standard methods (e.g., electroporation), and the transformed bacteria selected on LB plates containing 60 µg/ml Chloramphenicol.

Cre recombinase [3] = target: T1, Cre recombinase; assay: in vitro recombination pD3 x pCMVmycloxP, 50 mM Tris-HCl pH 7.5, 30 mM NaCl, 10 mM MgCl2, BSA, 37 C 15 min; chloramphenicol selection in E. coli; settings: chain copies: 4 per synapse (inferred); AatII and EcoRI overhangs before cloning; assayed within plasmid
Description: as §1, §2

B1: loxP site of acceptor pCMVmycloxP (LoxPMyc-up/down) (dsDNA)
DNA 1: AGATAACTTCGTATAGCATACATTATACGAAGTTATA
DNA 2: GATCTATAACTTCGTATAATGTATGCTATACGAAGTTATCTCCA
binding result (Cre recombinase [1]): binds

B2: loxP site 2 of donor pD3 (LoxP2-up/down) (dsDNA)
DNA 1: AATTCGGATCCATAACTTCGTATAGCATACATTATACGAAGTTATGCGGCC
DNA 2: AGCGGCCGCATAACTTCGTATAATGTATGCTATACGAAGTTATGGATCCG
binding result (Cre recombinase [2]): binds

B3: loxP site 1 of donor pD3 (LoxP1-up/down) (dsDNA)
DNA 1: CGCGGCCGCATAACTTCGTATAGCATACATTATACGAAGTTATCAGTCGACG
DNA 2: AATTCGTCGACTGATAACTTCGTATAATGTATGCTATACGAAGTTATGCGGCCGCGACGT
binding result (Cre recombinase [3]): binds
